In paper PMC12723162, “Alphaherpesvirus pUL21 homologs use non-canonical sequences to compete with cellular adaptors for protein phosphatase 1 binding” (The Journal of Biological Chemistry, 2025):
Primed or numbered codes have the meaning given here. Where no end group is shown, it is not given here. FITC′ = fluorescein isothiocyanate; Ahx = NCCCCCC(=O)O

Experiments:
[1] = target: T1, PP1γ catalytic domain (residues 7–300)-H6 (mouse, UniProt P63087 7-300); assay: fluorescence polarisation; competition: serial dilution of competitor added to a pre-formed complex of 2 nM FITC-GADD34 peptide and 250 nM PP1γ catalytic domain (final); 50 mM HEPES pH 8.0, 500 mM NaCl, 0.05% TWEEN-20; 27 °C; conditions: both partners purified
T1 construct: mouse PP1γ catalytic domain, residues 7-300; no tag cleavage is described; also called PP1 catalytic domain; protein phosphatase 1; source: E. coli T7 Express lysY/Iq, purified (Ni-NTA, SEC)

[2] = target: T1, PP1γ catalytic domain (residues …); assay: ITC; 25 °C; 50 mM HEPES pH 8.0, 500 mM NaCl, 0.5 mM TCEP; 12 x 3 μl injections; peptide or pORF38-NLT titrated into PP1γ catalytic domain; one-site binding model; syringe and cell contents in Table S1; conditions: both partners purified
[3] = target: T1, PP1γ catalytic domain (residues …); assay: fluorescence polarisation; competition: increasing pUL21 added to a pre-formed complex of 2 nM FITC-GADD34 peptide and 250 nM PP1γ catalytic domain; Tris pH 8.5 in place of HEPES pH 8; conditions: both partners purified
[4] = tested on: endogenous PP1α; assay: GFP affinity capture / co-IP of endogenous PP1α with GFP-tagged bait; format: binding, human; conditions: HEK 293T cells, 24 h post-transfection, GFP-Trap, immunoblot; representative of two independent experiments
[5] = tested on: endogenous PP1γ; conditions: HEK 293T cells; cited from earlier work
From the text: (§1) HSV-1 pUL21 was recently identified as a novel viral PP1 regulatory protein that promotes virus replication and spread. HSV-1 pUL21 and its homologues across the alphaherpesviruses comprise two folded domains ([21], [22]) that are linked by a flexible linker domain ([23]). PP1 binding to pUL21 requires a novel SLiM, termed the Twenty-one Recruitment Of Protein Phosphatase One (TROPPO) motif, that is present in the linker region and is conserved across alphaherpesviruses.

[6] = tested on: endogenous PP1α; conditions: HEK 293T cells; cited from earlier work
From the text: as §1

[7] = tested on: endogenous PP1β; conditions: HEK 293T cells; cited from earlier work
From the text: as §1

[8] = target: T1, PP1γ catalytic domain (residues …); assay: fluorescence polarisation; direct titration: 2 nM FITC-GADD34 peptide with a serial dilution of PP1γ catalytic domain; 50 mM HEPES pH 8.0, 500 mM NaCl, 0.05% TWEEN-20; 27 °C; one-site binding model; conditions: both partners purified
[9] = target: T1, PP1γ catalytic domain (residues …); assay: fluorescence polarisation; direct titration of PP1γ catalytic domain against FITC-GADD34 peptide in the buffer optimised for pUL21 (Tris pH 8.5 in place of HEPES pH 8); conditions: both partners purified

T1 sequence (P63087 7-300): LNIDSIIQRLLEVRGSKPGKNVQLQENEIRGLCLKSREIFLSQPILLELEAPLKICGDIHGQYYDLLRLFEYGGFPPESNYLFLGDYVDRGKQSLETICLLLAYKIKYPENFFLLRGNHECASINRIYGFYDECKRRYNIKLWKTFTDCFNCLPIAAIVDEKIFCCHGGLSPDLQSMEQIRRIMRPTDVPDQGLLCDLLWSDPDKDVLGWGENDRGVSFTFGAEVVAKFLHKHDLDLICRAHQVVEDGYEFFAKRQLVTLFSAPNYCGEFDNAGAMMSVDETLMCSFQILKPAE

B1: pORF38-NLT-H6 (domain or fragment)
chain: MEFPYHSTVSYNGVTFYFNERATRAYFICGGCLISIPRKHGGEIAKFGHVVRGVGPGDRSVASYVRSELNRTGKTWAVSSNNNCVFLDRVALLAAGSGAVDRDLCGTFDVEVEDPTLADYLVSLPVTHLTLVAGVDVTRENKLKLFPTPTAINTTNGFMYVPNEASFSLVYMRMLELPESLQELVSGLFDGTPEIRDALNGSNDDEKTSIIVSRRAADVVTEDVKADDVPISGEPYSEKQPRRRKKSDHITLSNFVQIRTIPR
notes: VZV pORF38 residues 1-263: N-terminal domain plus linker up to the end of the TROPPO motif (NLT region); Sub-cloned into the vector pOPTnH; also called pOPF38-NLT; source: E. coli T7 Express lysY/Iq, purified (Ni-NTA, SEC); not shown: His6, C-terminal, kept
IC50 [1]: 417 nM
Kd [2]: 497 nM
stoichiometry N [2]: 1

B2: pUL21-RVxF-H6 (natural protein)
chain: MELSYATTMHYRDVVFYVTTDRNRAYFVCGGCVYSVGRPCASQPGEIAKFGLVVRGTGPDDRVVANYVRSELRQRGLQDVRPIGEDEVFLDSVCLLNPNVSSELDVINTNDVEVLDECLAEYCTSLRTSPGVLISGLRVRAQDRIIELFEHPTIVNVSSHFVYTPSPYVFALAQAHLPRLPSSLEALVSGLFDGIPAPRQPLDAHNPRTDVVITGRRAPRPIAGSGAGSGGAGAKRVTFSEFVQVKHIDRVGPAGVSPAPPPNNTDSSSLVPGAQDSAPPGPTLRELWWVFYAADRALEEPRADSGLTREEVRAVRGFREQAWKLFGSAGAPRAFIGAALGLSPLQKLAVYYYIIHRERRLSPFPALVRLVGRYTQRHGLYVPRPDDPVLADAINGLFRDALAAGTTAEQLLMFDLLPPKDVPVGSDVQADSTALLRFIESQRLAVPGGVISPEHVAYLGAFLSVLYAGRGRMSAATHTARLTGVTSLVLAVGDVDRLSAFDRGAAGAASRTRAAGYLDVLLTVRLARSQHGQSV
notes: methods, results and legend print V239F; also called pUL21 A237V + V239F (RVxF) mutant; source: E. coli T7 Express lysY/Iq, purified (Ni-NTA, SEC); not shown: His6, C-terminal, kept
IC50 [3]: 337 nM

B3: pUL21-GFP (protein)
chain: MELSYATTMHYRDVVFYVTTDRNRAYFVCGGCVYSVGRPCASQPGEIAKFGLVVRGTGPDDRVVANYVRSELRQRGLQDVRPIGEDEVFLDSVCLLNPNVSSELDVINTNDVEVLDECLAEYCTSLRTSPGVLISGLRVRAQDRIIELFEHPTIVNVSSHFVYTPSPYVFALAQAHLPRLPSSLEALVSGLFDGIPAPRQPLDAHNPRTDVVITGRRAPRPIAGSGAGSGGAGAKRATVSEFVQVKHIDRVGPAGVSPAPPPNNTDSSSLVPGAQDSAPPGPTLRELWWVFYAADRALEEPRADSGLTREEVRAVRGFREQAWKLFGSAGAPRAFIGAALGLSPLQKLAVYYYIIHRERRLSPFPALVRLVGRYTQRHGLYVPRPDDPVLADAINGLFRDALAAGTTAEQLLMFDLLPPKDVPVGSDVQADSTALLRFIESQRLAVPGGVISPEHVAYLGAFLSVLYAGRGRMSAATHTARLTGVTSLVLAVGDVDRLSAFDRGAAGAASRTRAAGYLDVLLTVRLARSQHGQSV
modifications: left off: GFP (from the vector pEGFP-N1), end not stated, kept
Co-IP of endogenous PP1α [4]: efficiently precipitate endogenous PP1α
Co-precipitation of endogenous PP1γ [5]: co-precipitates with endogenous PP1α, PP1β and PP1γ
Co-precipitation of endogenous PP1α [6]: co-precipitates with endogenous PP1α, PP1β and PP1γ
Co-precipitation of endogenous PP1β [7]: co-precipitates with endogenous PP1α, PP1β and PP1γ

B4: GADD34 RVxF+ϕϕ[xF] peptide (residues 552–568), FITC-labelled (peptide)
peptide: {FITC′-Ahx}-KARKVRFSEKVTVHFLA
notes: GADD34 (PP1 regulatory subunit 15A), residues 552-568, RVxF and ϕϕ[xF] motifs; also called fluorescent GADD34 peptide; GADD34 peptide; source: synthetic peptide (GenScript, >95% purity)
Kd [8]: 144 nM
Kd [9]: 55 nM
